# Results published in the supplement of paper PMC9170038.
# System: MS2 coat protein
# Experiment: apparent KD of MS2 coat protein; designed switch direction (-1 OFF switch, 1 ON switch): 1; higher = weaker reporter binding
# Summary of the method: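 Apparent KD, taken as the median over clusters for each design, was obtained by curve-fitting normalised cluster fluorescence. Designed RNA switches had been transcribed on Illumina chips by stalled E. coli RNA polymerase and titrated with SNAP-549-labelled MS2 coat protein, doubling from 0.7 or 1.5 nM to 3 µM.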
# [1] = input ligand: microRNA oligo, concentration not stated
# [2] = Eterna round: R95, input ligand: FMN 200 uM
# [3] = Eterna round: R95, input ligand: microRNA oligo, concentration not stated
# [4] = Eterna round: R95, input ligand: none
Sequence,apparent KD of MS2 coat protein (input ligand: FMN 200 uM) [µM],apparent KD of MS2 coat protein [1] [µM],apparent KD of MS2 coat protein (input ligand: none) [µM],apparent KD of MS2 coat protein [2] [µM],apparent KD of MS2 coat protein [3] [µM],apparent KD of MS2 coat protein [4] [µM]
"AUUACUAACAUAGGAUAUCAUGCGAAAAUUGCGUGAGAAGGGUGGACACUGUCUUUCUCGGAGUACAUGAGGAUCACCCAUGUG [SameState NG1 #68] (Eterna round: R96, puzzle: Same State NG 1)",0.564,0.138,0.147,–,–,–
"AUUAUUUUUGCAGGAUAUGAUUAACAUGAGGAUCACCCAUGUGGUGUUGUGAGUAAGGAGAGUGAUCAGAAGGGCAUUUUUUUU [JMF's solution 60] (Eterna round: R96, puzzle: Same State NG 2)",0.449,0.41,0.315,–,–,–
"AGCUAUUACGAAGGAUAUUCUGACAUGAGGAUCACCCAUGUCUUCAUGAUUUAUUGUGAUCACGUGAAGAAGGUUGUACUAACA [SameState NG2 #26] (Eterna round: R96, puzzle: Same State NG 2)",0.0664,0.0722,0.0722,–,–,–
"UUCACCUUUUUUUACAUGAGGAUCACCCAUGUUUUCCCUACGUAGGAUAUCGAUGCUUGAUUGUUCGAGAAGGACGUUGUAAGU [JR_SSND3_Sub056] (Eterna round: R96, puzzle: Same State NG 3)",0.0296,0.0207,0.0337,–,–,–
"CCCUUCGGCACAUGAGGAUCACCCAUGUUUUAGUGGAAGAGGUAGGAUAUGGCUGGGAGCAGAAGCCAGAAGGACCAAAUAAAU [Attiatan] (Eterna round: R96, puzzle: Same State NG 3)",0.0221,0.019,0.0098,–,–,–
GUAAGGCAAGCUUUUUUCUCGUAGUGUAAACAUGAGGAUCACCCAUGUGCUCGCCCUGGAUCUUUGAAUCGCAGAAA [Ritiorreon] (puzzle: Sensor for hsa-mir-208a),–,–,–,0.0449,0.0231,0.0495
"GGACGUCAUCUCACUGAUUAAACAUGAGGAUCACCCAUGUCACAGGAUAUGAGUCCGAUUAGGACUCAGAAGGGUGUGACGUCC [Fiskers NG3ss - 45] (Eterna round: R96, puzzle: Same State NG 3)",0.0207,0.0146,0.0229,–,–,–
UAUAAACAUGAGGAUCACCCAUGUAAUAAUAUGGGAGGAUAUCAGAAUGUAUUUAUGUAAUGAGAAGGCCUAAUAU [Mat - Same State 1 - Mod of Eli - D69] (puzzle: Same State 1),–,–,–,0.0509,0.122,0.372
AGGUAACAUGAGGAUCACCCAUGUAAGGUGAACGUAGGAUAUCGAAGAGGUAGGGUAGGACGAGAAGGACGAGGAA [JR_SS1_Sub092] (puzzle: Same State 1),–,–,–,0.347,0.346,0.481
"UUUAGGAGUCAAGGAUAUGCUACCGUUUCGGUAGCAGAAGGUGAUCACAUGAGGAUCACCCAUGUAUGCAUGCGUGAGCGUGCU [JL SSNG1 3.62] (Eterna round: R96, puzzle: Same State NG 1)",–,0.0241,–,–,–,–
"UUAACAUGACGAGGAUAUCAUUUAUAUCUUGAUUGAGAAGGCGUUCUUUUUUUUACCUAACAUGAGGAUCACCCAUGUGACAGU [JR_SSNG1_Sub051] (Eterna round: R96, puzzle: Same State NG 1)",0.0124,0.0137,0.0176,–,–,–
"UAGAUUCACGUAGGAUAUCGACCUACAUGAGGAUCACCCAUGUUUUUGAAUAGAUUUUUUUGUUACGAGAAGGACGUUAUGUAU [JR_SSNG2_Sub064] (Eterna round: R96, puzzle: Same State NG 2)",0.133,0.177,0.268,–,–,–
"ACCCGCGACGGAGGAUAUGGGCACUCGGCGAAAUAAACCGCCAUAACAUGAGGAUCACCCAUGUCCCAGAAGGCCGUCGCAAUC [Anlelaen] (Eterna round: R96, puzzle: Same State NG 2)",0.081,0.154,0.473,–,–,–
"UGUUGUAUUACAGGAUAUCUAUUGUUUUUAUGUAGAGAAGGGUAUUCACAUGAGGAUCACCCAUGUAUAUACGAGGAAGUUGUG [JMF's solution 85] (Eterna round: R96, puzzle: Same State NG 1)",0.0532,0.0366,0.0488,–,–,–
"UGGCUCAGAGCAGGAUAUAUGUGAUCACAUGAGGAUCACCCAUGUCUCGAGCUUCGGCUCGAGACAUAGAAGGGCUCUGAGCCA [SSNG2/3-B2] (Eterna round: R96, puzzle: Same State NG 2)",0.0233,0.0218,0.0225,–,–,–
